Substrate in data set [1]: Oc1ccc(/C=C/c2cc(O)cc(O)c2)cc1
Put plainly: purified protein. As to conditions: apparent, 0.1 M Tris-HCl pH 9, room temperature. It is filed as biochemical, Novosphingobium aromaticivorans.

Substrate in data set [2]: CC=Cc1ccc(O)c(OC)c1
Briefly: purified protein. Type of data set: biochemical, Novosphingobium aromaticivorans. As to conditions: apparent, 0.1 M Tris-HCl pH 9, room temperature.

B1: NOV1 (Novosphingobium aromaticivorans DSM 12444) (protein)
chain: MAQFPNTPSFTGFNTPSRIEADIADLAHEGTIPQGLNGAFYRVQPDPQFPPRLDDDIAFNGDGMITRFHIHDGQVDFRQRWAKTDKWKLENAAGKALFGAYRNPLTDDEAVKGEIRSTANTNAFVFGGKLWAMKEDSPALVMDPATMETFGFEKFGGKMTGQTFTAHPKVDPKTGNMVAIGYAASGLCTDDVTYMEVSPEGELVREVWFKVPYYCMMHDFGITEDYLVLHIVPSIGSWERLEQGKPHFGFDTTMPVHLGIIPRRDGVRQEDIRWFTRDNCFASHVLNAWQEGTKIHFVTCEAKNNMFPFFPDVHGAPFNGMEAMSHPTDWVVDMASNGEDFAGIVKLSDTAAEFPRIDDRFTGQKTRHGWFLEMDMKRPVELRGGSAGGLLMNCLFHKDFETGREQHWWCGPVSSLQEPCFVPRAKDAPEGDGWIVQVCNRLEEQRSDLLIFDALDIEKGPVATVNIPIRLRFGLHGNWANADEIGLAEKVLAA
The term Km denotes the substrate concentration at which the rate is half of its maximum. In general, kcat refers to the maximal rate divided by the concentration of active sites. Usually kcat/Km stands for the turnover number divided by the Michaelis constant. For B1, in “purified protein [1]”, the Km came to 60 ± 10 µM, the kcat turned out to be 0.38 ± 0.02 s⁻¹ and the kcat/Km was 6300 ± 200 M⁻¹ s⁻¹. Further, in “purified protein [2]”, the Km stood at 600 ± 100 µM, the kcat came to 7.3 ± 0.2 s⁻¹ and the kcat/Km is 12200 ± 2000 M⁻¹ s⁻¹.

B2: NOV1 (Novosphingobium aromaticivorans DSM 12444; S283F) (protein)
chain: MAQFPNTPSFTGFNTPSRIEADIADLAHEGTIPQGLNGAFYRVQPDPQFPPRLDDDIAFNGDGMITRFHIHDGQVDFRQRWAKTDKWKLENAAGKALFGAYRNPLTDDEAVKGEIRSTANTNAFVFGGKLWAMKEDSPALVMDPATMETFGFEKFGGKMTGQTFTAHPKVDPKTGNMVAIGYAASGLCTDDVTYMEVSPEGELVREVWFKVPYYCMMHDFGITEDYLVLHIVPSIGSWERLEQGKPHFGFDTTMPVHLGIIPRRDGVRQEDIRWFTRDNCFAFHVLNAWQEGTKIHFVTCEAKNNMFPFFPDVHGAPFNGMEAMSHPTDWVVDMASNGEDFAGIVKLSDTAAEFPRIDDRFTGQKTRHGWFLEMDMKRPVELRGGSAGGLLMNCLFHKDFETGREQHWWCGPVSSLQEPCFVPRAKDAPEGDGWIVQVCNRLEEQRSDLLIFDALDIEKGPVATVNIPIRLRFGLHGNWANADEIGLAEKVLAA
As for B2, in “purified protein [1]”, the Michaelis constant (Km) came to 227 ± 2 µM, the turnover number (kcat) is 0.078 ± 0.004 s⁻¹ and the specificity constant (kcat/Km) amounted to 340 ± 20 M⁻¹ s⁻¹. In “purified protein [2]”, the Km was 800 ± 100 µM, the catalytic constant (kcat) was 14.5 ± 0.8 s⁻¹ and the specificity constant (kcat/Km) turned out to be 18100 ± 4000 M⁻¹ s⁻¹.

Values taken from publication PMC9851154.
